The values below come from patent US20060165680A1.

In assay [1] the target is TAG-72 positive bovine submaxillary mucin (BSM) (bovine). In words: SPR (BIAcore X), control Fab over immobilised BSM, BSA reference.
The target in assay [2] is TAG-72 expressed on the cell surface of Jurkat cells (human). In words: flow cytometry on Jurkat cells expressing cell-surface TAG-72, 1 ug antibody, FITC-conjugated mouse anti-human antibody.
The target is the same in assay [3]. In words: flow cytometry on Jurkat cells expressing cell-surface TAG-72, antibody amount not given, FITC-conjugated mouse anti-human antibody.

Fab derived from human IgG had an off-rate constant (koff) in assay [1] of 0.0138 s⁻¹.

In assay [1], Fab derived from murine CC49 had a dissociation rate constant (koff) of 0.000104 s⁻¹.

In assay [2], HuCC49 (antibody) displayed a % Gated, marker M1 of 70.8%; a % Gated, marker M2 of 29.4%; a % Total, marker M1 of 60.6%; a % Total, marker M2 of 25.2%. In assay [2], this substance registered a Mean, marker All of 18; a Mean, marker M1 of 4.36; a Mean, marker M2 of 50.9.

On to cCC49 (antibody), for which, in assay [2], the % Gated, marker M1 is 27.2%; the % Gated, marker M2 turned out to be 73%; the % Total, marker M1 is 12.2%; the % Total, marker M2 stood at 32.7%. In assay [2], the Mean, marker All came to 41.6; the Mean, marker M1 came out at 5.92; the Mean, marker M2 was found to be 54.8.

In assay [3], “human immunoglobulin G (HuIgG) control (antibody)” gave a % Gated, marker M1 of 99.7%; a % Gated, marker M2 of 0.31%; a % Total, marker M1 of 92.1%; a % Total, marker M2 of 0.29%. In assay [3], this substance returned a Mean, marker All of 3.54; a Mean, marker M1 of 3.49; a Mean, marker M2 of 20.5.
